How the values were obtained:
[1] = test system: His228 (position 228, SCDKTHTCPPC)
[2] = test system: His272 (position 272, VVDVSHEDPEV)
[3] = test system: His289 (position 289, DGVEVHNAKTK)
[4] = test system: His57 (position 57, TWNSGHIDYAD)

In the case of “Adalimumab (therapeutic monoclonal IgG1 kappa antibody, anti-TNF) (Homo sapiens (recombinant fully human antibody))”, the pKa [1] is reported as 6.4, the pKa [2] is reported as 7.0 and the pKa [3] is reported as 6.2. It also gave a pKa [4] of 6.9.

— PMC7156388
